The target in this assay is T1, Ab2B.
T1 construct: The variable domains are the same in both; also called antibody Ab2B
The experiment in a line: Biacore; Ab2B captured on anti-human Fab chip, peptide as analyte. The protocol:
Anti-human Fab was ligated to Biacore chips at pH 4.5. […] TBPs were flowed through the chip as analytes at 30 μL/min. 10 mM glycine at pH 1.5 was used for regeneration of the chip. Conditions were optimized as needed.
A general note: Surface plasmon resonance follows binding to a sensor surface in real time, without labels.

No end group written: not given here.

T1 sequence (heavy, as listed by the source, chain 1 of 2): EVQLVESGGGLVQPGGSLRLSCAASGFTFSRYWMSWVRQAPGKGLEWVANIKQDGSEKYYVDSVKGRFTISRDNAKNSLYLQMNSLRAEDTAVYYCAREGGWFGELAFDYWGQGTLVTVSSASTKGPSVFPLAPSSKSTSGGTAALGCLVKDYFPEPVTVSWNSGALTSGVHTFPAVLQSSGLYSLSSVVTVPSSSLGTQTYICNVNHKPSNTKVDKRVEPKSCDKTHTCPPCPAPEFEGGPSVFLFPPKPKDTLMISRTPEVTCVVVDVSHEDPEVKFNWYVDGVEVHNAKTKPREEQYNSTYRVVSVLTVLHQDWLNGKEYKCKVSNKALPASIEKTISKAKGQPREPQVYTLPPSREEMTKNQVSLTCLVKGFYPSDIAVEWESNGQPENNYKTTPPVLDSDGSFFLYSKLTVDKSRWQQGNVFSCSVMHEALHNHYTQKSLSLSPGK
T1 sequence (light, as listed by the source, chain 2 of 2): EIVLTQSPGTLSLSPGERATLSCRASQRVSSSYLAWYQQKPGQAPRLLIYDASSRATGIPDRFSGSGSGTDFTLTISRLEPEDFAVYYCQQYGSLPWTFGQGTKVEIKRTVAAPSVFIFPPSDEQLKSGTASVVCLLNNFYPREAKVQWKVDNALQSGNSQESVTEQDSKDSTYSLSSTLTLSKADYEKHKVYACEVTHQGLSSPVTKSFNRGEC

B1: SEQ ID NO: 151 (peptide)
peptide: {NH2‑(PEG)12}-RSQSRSRYYRQRQRSRRRRRRS
notes: also called TBPA
Turning to B1, the binding result is recorded as “no binding (tested: 50.0~0.8 nM analyte range)”.

The record behind these values is US20240189442A1 (ALLYGEN GROUP, published 2024).
